Results from the supplement of paper PMC11246515.
± gives the standard deviation of the averaged measurements.

Experiment: total protein half-life in vivo (active degradation + dilution); higher = more stable protein
[1] = E. coli NCM3722 delta-clpP delta-lon delta-hslV, growth: N-lim chemostat, doubling time 6 h
[2] = E. coli NCM3722 delta-clpP, growth: N-lim chemostat, doubling time 6 h
[3] = E. coli NCM3722 delta-lon, growth: N-lim chemostat, doubling time 6 h
[4] = E. coli NCM3722 delta-smpB, growth: N-lim chemostat, doubling time 6 h
[5] = wild type E. coli NCM3722, growth: C-lim chemostat, doubling time 3 h
[6] = wild type E. coli NCM3722, growth: C-lim chemostat, doubling time 12 h
[7] = wild type E. coli NCM3722, growth: N-lim chemostat, doubling time 6 h
[8] = wild type E. coli NCM3722, growth: N-lim chemostat, doubling time 12 h
[9] = wild type E. coli NCM3722, growth: P-lim chemostat, doubling time 6 h
[10] = wild type E. coli NCM3722, growth: P-lim chemostat, doubling time 12 h
[11] = E. coli NCM3722 delta-hslV, growth: N-lim chemostat, doubling time 6 h
[12] = wild type E. coli NCM3722, growth: C-lim chemostat, doubling time 6 h

MNLTLTRRLWMGFALMALLTLTSTLVGWYNLRFISQVEKDNTQALIPTMNMARQLSEASAWELFAAQNLTSADNEKMWQAQGRMLTAQSLKINALLQALREQGFDTTAIEQQEQEISRSLRQQGELVGQRLQLRQQQQQLSQQIVAAADEIARLAQGQANNATTSAGATQAGIYDLIEQDQRQAAESALDRLIDIDLEYVNQMNELRLSALRVQQMVMNLGLEQIQKNAPTLEKQLNNAVKILQRRQIRIEDPGVRAQVATTLTTVSQYSDLLALYQQDSEISNHLQTLAQNNIAQFAQFSSEVSQLVDTIELRNQHGLAHLEKASARGQYSLLLLGMVSLCALILILWRVVYRSVTRPLAEQTQALQRLLDGDIDSPFPETAGVRELDTIGRLMDAFRSNVHALNRHREQLAAQVKARTAELQELVIEHRQARAEAEKASQAKSAFLAAMSHEIRTPLYGILGTAQLLADNPALNAQRDDLRAITDSGESLLTILNDILDYSAIEAGGKNVSVSDEPFEPRPLLESTLQLMSGRVKGRPIRLATAIADDMPCALMGDPRRIRQVITNLLSNALRFTDEGYIILRSRTDGEQWLVEVEDSGCGIDPAKLAEIFQPFVQVSGKRGGTGLGLTISSRLAQAMGGELSATSTPEVGSCFCLRLPLRVATAPVPKTVNQAVRLDGLRLLLIEDNPLTQRITIEMLKTSGAQIVAVGNAAQALETLQNSEPFAAALVDFDLPDIDGITLARQLAQQYPSLVLIGFSAHVIDETLRQRTSSLFRGIIPKPVPREVLGQLLAHYLQLQVNNDQSLDVSQLNEDAQLMGTEKIHEWLVLFTQHALPLLDEIDIARASQDSEKIKRAAHQLKSSCSSLGMHIASQLCAQLEQQPLSAPLPHEEITRSVAALEAWLHKKDLNAI
total protein half-life in vivo [1]: 3.75 h
total protein half-life in vivo [2]: 4.08 h
total protein half-life in vivo [3]: 4.54 ± 0.12 h
total protein half-life in vivo [4]: 4.12 ± 0.42 h
total protein half-life in vivo [5]: 2.81 h
total protein half-life in vivo [6]: 6.76 h
total protein half-life in vivo [7]: 5.462 ± 0.037 h
total protein half-life in vivo [8]: > 16 h
total protein half-life in vivo [9]: 6.79 ± 1.1 h
total protein half-life in vivo [10]: 10.3 ± 0.94 h

MARKWLNLFAGAALSFAVAGNALADEGKITVFAAASLTNAMQDIATQFKKEKGVDVVSSFASSSTLARQIEAGAPADLFISADQKWMDYAVDKKAIDTATRQTLLGNSLVVVAPKASVQKDFTIDSKTNWTSLLNGGRLAVGDPEHVPAGIYAKEALQKLGAWDTLSPKLAPAEDVRGALALVERNEAPLGIVYGSDAVASKGVKVVATFPEDSHKKVEYPVAVVEGHNNATVKAFYDYLKGPQAAEIFKRYGFTIK
total protein half-life in vivo [1]: 5.7 ± 0.29 h
total protein half-life in vivo [2]: 5.9 ± 0.53 h
total protein half-life in vivo [11]: 6.46 ± 0.2 h
total protein half-life in vivo [3]: 6.16 ± 0.47 h
total protein half-life in vivo [4]: 6.39 ± 0.36 h
total protein half-life in vivo [5]: 2.87 ± 0.23 h
total protein half-life in vivo [12]: 6.01 ± 0.3 h
total protein half-life in vivo [6]: 12.8 ± 0.23 h
total protein half-life in vivo [7]: 5.9 ± 0.19 h
total protein half-life in vivo [8]: 12.7 ± 0.75 h
total protein half-life in vivo [9]: 6.64 ± 0.41 h
total protein half-life in vivo [10]: 13.7 ± 0.95 h

MKPSVILYKALPDDLLQRLQEHFTVHQVANLSPQTVEQNAAIFAEAEGLLGSNENVNAALLEKMPKLRATSTISVGYDNFDVDALTARKILLMHTPTVLTETVADTLMALVLSTARRVVEVAERVKAGEWTASIGPDWYGTDVHHKTLGIVGMGRIGMALAQRAHFGFNMPILYNARRHHKEAEERFNARYCDLDTLLQESDFVCLILPLTDETHHLFGAEQFAKMKSSAIFINAGRGPVVDENALIAALQKGEIHAAGLDVFEQEPLSVDSPLLSMANVVAVPHIGSATHETRYGMAACAVDNLIDALQGKVEKNCVNPHVAD
total protein half-life in vivo [1]: 4.9 ± 1.3 h
total protein half-life in vivo [2]: 4.12 ± 0.17 h
total protein half-life in vivo [11]: 3.82 ± 0.29 h
total protein half-life in vivo [3]: 5.02 ± 0.68 h
total protein half-life in vivo [4]: 3.89 ± 0.12 h
total protein half-life in vivo [5]: 2.95 ± 0.11 h
total protein half-life in vivo [12]: 5.5 ± 0.48 h
total protein half-life in vivo [6]: 8.92 ± 0.31 h
total protein half-life in vivo [7]: 4.03 ± 0.16 h
total protein half-life in vivo [8]: 6.22 ± 0.18 h
total protein half-life in vivo [9]: 5.53 ± 0.1 h
total protein half-life in vivo [10]: 11.1 ± 0.45 h

MGNTSIQTQSYRAVDKDAGQSRSYIIPFALLCSLFFLWAVANNLNDILLPQFQQAFTLTNFQAGLIQSAFYFGYFIIPIPAGILMKKLSYKAGIITGLFLYALGAALFWPAAEIMNYTLFLVGLFIIAAGLGCLETAANPFVTVLGPESSGHFRLNLAQTFNSFGAIIAVVFGQSLILSNVPHQSQDVLDKMSPEQLSAYKHSLVLSVQTPYMIIVAIVLLVALLIMLTKFPALQSDNHSDAKQGSFSASLSRLARIRHWRWAVLAQFCYVGAQTACWSYLIRYAVEEIPGMTAGFAANYLTGTMVCFFIGRFTGTWLISRFAPHKVLAAYALIAMALCLISAFAGGHVGLIALTLCSAFMSIQYPTIFSLGIKNLGQDTKYGSSFIVMTIIGGGIVTPVMGFVSDAAGNIPTAELIPALCFAVIFIFARFRSQTATN
total protein half-life in vivo [12]: 3.02 h
total protein half-life in vivo [6]: 4.27 ± 0.49 h

MISANRPIINLDLDLLRTFVAVADLNTFAAAAAAVCRTQSAVSQQMQRLEQLVGKELFARHGRNKLLTEHGIQLLGYARKILRFNDEACSSLMFSNLQGVLTIGASDESADTILPFLLNRVSSVYPKLALDVRVKRNAYMAEMLESQEVDLMVTTHRPSAFKALNLRTSPTHWYCAAEYILQKGEPIPLVLLDDPSPFRDMVLATLNKADIPWRLAYVASTLPAVRAAVKAGLGVTARPVEMMSPDLRVLSGVDGLPPLPDTEYLLCYDPSSNNELAQVIYQAMESYHNPWQYSPMSAPEGDDSLLIERDIE
total protein half-life in vivo [2]: 5.56 ± 0.33 h
total protein half-life in vivo [11]: 2.546 ± 0.023 h
total protein half-life in vivo [3]: 3.25 h
total protein half-life in vivo [4]: 2.713 ± 0.022 h
total protein half-life in vivo [5]: 2.45 ± 0.064 h
total protein half-life in vivo [12]: 4.7 ± 0.26 h
total protein half-life in vivo [6]: 7.62 ± 0.41 h
total protein half-life in vivo [7]: 3.28 ± 1.1 h
total protein half-life in vivo [8]: 3.66 ± 0.051 h
total protein half-life in vivo [9]: 3.43 ± 0.079 h
total protein half-life in vivo [10]: 6.34 ± 0.77 h

MDIPRIFTISESEHRIHNPFTEEKYATLGRVLRMKPGTRILDLGSGSGEMLCTWARDHGITGTGIDMSSLFTAQAKRRAEELGVSERVHFIHNDAAGYVANEKCDVAACVGATWIAGGFAGAEELLAQSLKPGGIMLIGEPYWRQLPATEEIAQACGVSSTSDFLTLPGLVGAFDDLGYDVVEMVLADQEGWDRYEAAKWLTMRRWLEANPDDDFAAEVRAELNIAPKRYVTYARECFGWGVFALIAR
total protein half-life in vivo [1]: 5.64 ± 0.16 h
total protein half-life in vivo [11]: 5.71 ± 1.8 h
total protein half-life in vivo [4]: 3.54 ± 0.12 h
total protein half-life in vivo [5]: 2.7 ± 0.65 h
total protein half-life in vivo [12]: 4.93 ± 0.38 h
total protein half-life in vivo [6]: 9.89 ± 1.2 h
total protein half-life in vivo [7]: 3.97 h
total protein half-life in vivo [8]: 8.49 h
total protein half-life in vivo [9]: 7.11 h
total protein half-life in vivo [10]: 12.41 ± 0.083 h

MERCGWVSQDPLYIAYHDNEWGVPETDSKKLFEMICLEGQQAGLSWITVLKKRENYRACFHQFDPVKVAAMQEEDVERLVQDAGIIRHRGKIQAIIGNARAYLQMEQNGEPFVDFVWSFVNHQPQVTQATTLSEIPTSTSASDALSKALKKRGFKFVGTTICYSFMQACGLVNDHVVGCCCYPGNKP
total protein half-life in vivo [1]: 5.26 ± 0.55 h
total protein half-life in vivo [2]: 2.52 ± 0.12 h
total protein half-life in vivo [11]: 2.48 ± 0.17 h
total protein half-life in vivo [3]: 4.36 ± 0.28 h
total protein half-life in vivo [4]: 1.72 ± 0.98 h
total protein half-life in vivo [12]: 1.68 h
total protein half-life in vivo [6]: 3.77 ± 2 h
total protein half-life in vivo [7]: 2.53 ± 0.58 h
total protein half-life in vivo [8]: 3.37 h

MNIFEQTPPNRRRYGLAAFIGLIAGVVSAFVKWGAEVPLPPRSPVDMFNAACGPESLIRAAGQIDCSRNFLNPPYIFLRDWLGLTDPNAAVYTFAGHVFNWVGVTHIIFSIVFAVGYCVVAEVFPKIKLWQGLLAGALAQLFVHMISFPLMGLTPPLFDLPWYENVSEIFGHLVWFWSIEIIRRDLRNRITHEPDPEIPLGSNR [P0AAA1]
total protein half-life in vivo [1]: 6.706 ± 0.025 h
total protein half-life in vivo [3]: 6.72 ± 0.32 h
total protein half-life in vivo [4]: 6.16 ± 0.29 h
total protein half-life in vivo [5]: 3.21 ± 0.28 h
total protein half-life in vivo [12]: 6.707 ± 0.0077 h
total protein half-life in vivo [6]: 14.5 ± 0.3 h
total protein half-life in vivo [7]: 5.96 ± 0.12 h
total protein half-life in vivo [9]: 6.57 ± 1.5 h
total protein half-life in vivo [10]: 13.7 ± 1.1 h
